Test system: Escherichia coli TOP10
Test: shrunken log2 fold change of peptide-encoding DNA abundance (4.5 h post-induction vs induction); higher = less antimicrobial activity (less host growth inhibition)
Settings: time post-induction: 4.5 h; library: site-saturation at positions 5, 18, 19, 20
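Also: peptides expressed intracellularly from a pBAD plasmid library in pooled LB shake-flask culture, induced with 0.3% L-arabinose, DNA abundance read by NGS, three biological replicates, DESeq2 with apeglm shrinkage.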

For RRIRYRPPRLPRPRPRPQGCPRP, the “shrunken log2 fold change” value was -0.557.
For RRIRPRPPRLPRPRPRPNRMPRP, the “shrunken log2 fold change” value was -0.138.
For RRIRYRPPRLPRPRPRPNVWPRP, the “shrunken log2 fold change” value was -0.00356.
With RRIRGRPPRLPRPRPRPSTWPRP the “shrunken log2 fold change” value was 0.22.
In the case of RRIRQRPPRLPRPRPRPFCSPRP, the “shrunken log2 fold change” value was 0.036.
For RRIRRRPPRLPRPRPRPLYIPRP, the “shrunken log2 fold change” value was -0.466.
In the case of RRIRRRPPRLPRPRPRPHIVPRP, the “shrunken log2 fold change” value was -0.0515.
With RRIRLRPPRLPRPRPRPRTGPRP the “shrunken log2 fold change” value was 0.321.
RRIRTRPPRLPRPRPRPPLIPRP was tested, and the “shrunken log2 fold change” value was 0.0432.
For RRIRKRPPRLPRPRPRPVMRPRP, the “shrunken log2 fold change” value was 0.74.
For RRIRKRPPRLPRPRPRPECSPRP, the “shrunken log2 fold change” value was 0.854.
RRIRARPPRLPRPRPRPYWGPRP was tested, and the “shrunken log2 fold change” value was -0.43.
With RRIRGRPPRLPRPRPRPMRWPRP the “shrunken log2 fold change” value was 0.844.
RRIRSRPPRLPRPRPRPWCTPRP was tested, and the “shrunken log2 fold change” value was -0.255.
With RRIRQRPPRLPRPRPRPSKSPRP the “shrunken log2 fold change” value was -0.332.
For RRIRSRPPRLPRPRPRPMSFPRP, the “shrunken log2 fold change” value was -0.374.
For RRIRARPPRLPRPRPRPSKAPRP, the “shrunken log2 fold change” value was -0.151.
RRIRDRPPRLPRPRPRPHYYPRP was tested, and the “shrunken log2 fold change” value was -0.236.
In the case of RRIRYRPPRLPRPRPRPRPSPRP, the “shrunken log2 fold change” value was 0.0768.
For RRIRHRPPRLPRPRPRPALFPRP, the “shrunken log2 fold change” value was -0.0554.
In the case of RRIRLRPPRLPRPRPRPRAWPRP, the “shrunken log2 fold change” value was 0.41.
In the case of RRIRTRPPRLPRPRPRPDQKPRP, the “shrunken log2 fold change” value was -0.056.
In the case of RRIRFRPPRLPRPRPRPFTLPRP, the “shrunken log2 fold change” value was 0.0331.
In the case of RRIRSRPPRLPRPRPRPSKAPRP, the “shrunken log2 fold change” value was -0.0678.
For RRIRSRPPRLPRPRPRPPIKPRP, the “shrunken log2 fold change” value was -0.221.
With RRIRMRPPRLPRPRPRPSMNPRP the “shrunken log2 fold change” value was -0.287.
RRIRCRPPRLPRPRPRPFCKPRP was tested, and the “shrunken log2 fold change” value was -0.0692.
For RRIRRRPPRLPRPRPRPHMYPRP, the “shrunken log2 fold change” value was -0.272.
With RRIRFRPPRLPRPRPRPRDCPRP the “shrunken log2 fold change” value was 2.96.
With RRIRFRPPRLPRPRPRPFRWPRP the “shrunken log2 fold change” value was 0.178.
RRIRVRPPRLPRPRPRPPMGPRP was tested, and the “shrunken log2 fold change” value was 0.254.
With RRIRWRPPRLPRPRPRPTWDPRP the “shrunken log2 fold change” value was 0.395.
In the case of RRIRYRPPRLPRPRPRPQQTPRP, the “shrunken log2 fold change” value was 0.019.
In the case of RRIRVRPPRLPRPRPRPRGDPRP, the “shrunken log2 fold change” value was 0.754.
RRIRGRPPRLPRPRPRPHEEPRP was tested, and the “shrunken log2 fold change” value was 0.383.
In the case of RRIRNRPPRLPRPRPRPVSLPRP, the “shrunken log2 fold change” value was -0.396.
RRIRGRPPRLPRPRPRPYKDPRP was tested, and the “shrunken log2 fold change” value was -0.322.
In the case of RRIRERPPRLPRPRPRPGQKPRP, the “shrunken log2 fold change” value was 0.2.
In the case of RRIRWRPPRLPRPRPRPITFPRP, the “shrunken log2 fold change” value was -0.232.
In the case of RRIRTRPPRLPRPRPRPEDQPRP, the “shrunken log2 fold change” value was 0.112.
RRIRVRPPRLPRPRPRPFSYPRP was tested, and the “shrunken log2 fold change” value was -0.012.
For RRIRSRPPRLPRPRPRPYDAPRP, the “shrunken log2 fold change” value was -0.557.
RRIRQRPPRLPRPRPRPWYMPRP was tested, and the “shrunken log2 fold change” value was -0.237.
RRIRERPPRLPRPRPRPDPRPRP was tested, and the “shrunken log2 fold change” value was 0.768.
With RRIRWRPPRLPRPRPRPLTMPRP the “shrunken log2 fold change” value was 0.0382.
RRIRLRPPRLPRPRPRPSKSPRP was tested, and the “shrunken log2 fold change” value was -0.0582.
In the case of RRIRERPPRLPRPRPRPQCGPRP, the “shrunken log2 fold change” value was -0.43.
In the case of RRIRMRPPRLPRPRPRPDVFPRP, the “shrunken log2 fold change” value was 0.387.
In the case of RRIRPRPPRLPRPRPRPVNWPRP, the “shrunken log2 fold change” value was 0.297.
With RRIRMRPPRLPRPRPRPRKSPRP the “shrunken log2 fold change” value was 0.902.
For RRIRGRPPRLPRPRPRPFTTPRP, the “shrunken log2 fold change” value was 0.0423.
For RRIRFRPPRLPRPRPRPAWWPRP, the “shrunken log2 fold change” value was 0.273.
With RRIRGRPPRLPRPRPRPWRWPRP the “shrunken log2 fold change” value was 0.656.
In the case of RRIRRRPPRLPRPRPRPTHLPRP, the “shrunken log2 fold change” value was 0.578.
For RRIRYRPPRLPRPRPRPHLEPRP, the “shrunken log2 fold change” value was -0.021.
RRIRCRPPRLPRPRPRPARVPRP was tested, and the “shrunken log2 fold change” value was 0.453.
RRIRRRPPRLPRPRPRPYKSPRP was tested, and the “shrunken log2 fold change” value was -0.239.
For RRIRARPPRLPRPRPRPFLPPRP, the “shrunken log2 fold change” value was -0.379.
RRIRVRPPRLPRPRPRPNIFPRP was tested, and the “shrunken log2 fold change” value was -0.234.
RRIRSRPPRLPRPRPRPGTIPRP was tested, and the “shrunken log2 fold change” value was -0.263.
For RRIRMRPPRLPRPRPRPIWIPRP, the “shrunken log2 fold change” value was 0.14.
In the case of RRIRDRPPRLPRPRPRPPNDPRP, the “shrunken log2 fold change” value was 0.14.
RRIRNRPPRLPRPRPRPDIIPRP was tested, and the “shrunken log2 fold change” value was -0.0869.
RRIRFRPPRLPRPRPRPTVEPRP was tested, and the “shrunken log2 fold change” value was 0.0624.
In the case of RRIRLRPPRLPRPRPRPVNAPRP, the “shrunken log2 fold change” value was 0.0227.
In the case of RRIRTRPPRLPRPRPRPKEFPRP, the “shrunken log2 fold change” value was -0.0177.
With RRIRSRPPRLPRPRPRPAVHPRP the “shrunken log2 fold change” value was 0.0588.
In the case of RRIRTRPPRLPRPRPRPYKDPRP, the “shrunken log2 fold change” value was -0.308.
In the case of RRIRTRPPRLPRPRPRPYNWPRP, the “shrunken log2 fold change” value was -0.143.
RRIRPRPPRLPRPRPRPLESPRP was tested, and the “shrunken log2 fold change” value was -0.0234.
RRIRVRPPRLPRPRPRPLYCPRP was tested, and the “shrunken log2 fold change” value was -0.596.
For RRIRHRPPRLPRPRPRPHHGPRP, the “shrunken log2 fold change” value was -0.755.
RRIRARPPRLPRPRPRPRAKPRP was tested, and the “shrunken log2 fold change” value was 0.868.
In the case of RRIRPRPPRLPRPRPRPKRTPRP, the “shrunken log2 fold change” value was 0.0584.
RRIRCRPPRLPRPRPRPQMDPRP was tested, and the “shrunken log2 fold change” value was -0.248.
RRIRMRPPRLPRPRPRPVYNPRP was tested, and the “shrunken log2 fold change” value was -0.17.
RRIRIRPPRLPRPRPRPCDQPRP was tested, and the “shrunken log2 fold change” value was -0.021.
RRIRIRPPRLPRPRPRPYMAPRP was tested, and the “shrunken log2 fold change” value was -0.281.
With RRIRERPPRLPRPRPRPKLNPRP the “shrunken log2 fold change” value was -0.254.
RRIRGRPPRLPRPRPRPHTPPRP was tested, and the “shrunken log2 fold change” value was 0.339.
RRIRHRPPRLPRPRPRPCQQPRP was tested, and the “shrunken log2 fold change” value was -0.0541.
RRIRDRPPRLPRPRPRPRAKPRP was tested, and the “shrunken log2 fold change” value was 0.208.
For RRIRKRPPRLPRPRPRPDLDPRP, the “shrunken log2 fold change” value was 0.109.
In the case of RRIRPRPPRLPRPRPRPLKKPRP, the “shrunken log2 fold change” value was 0.295.
For RRIRTRPPRLPRPRPRPHSQPRP, the “shrunken log2 fold change” value was -0.101.
With RRIRSRPPRLPRPRPRPTHMPRP the “shrunken log2 fold change” value was 0.188.
For RRIRRRPPRLPRPRPRPHFSPRP, the “shrunken log2 fold change” value was -0.187.
With RRIRPRPPRLPRPRPRPQLWPRP the “shrunken log2 fold change” value was 0.221.
For RRIRHRPPRLPRPRPRPHSDPRP, the “shrunken log2 fold change” value was 0.0468.
In the case of RRIRQRPPRLPRPRPRPKTAPRP, the “shrunken log2 fold change” value was 0.0173.
RRIRSRPPRLPRPRPRPRPGPRP was tested, and the “shrunken log2 fold change” value was 0.658.
For RRIRTRPPRLPRPRPRPIMTPRP, the “shrunken log2 fold change” value was -0.0418.
RRIRYRPPRLPRPRPRPQLGPRP was tested, and the “shrunken log2 fold change” value was -0.238.
RRIRLRPPRLPRPRPRPKMRPRP was tested, and the “shrunken log2 fold change” value was 0.608.
In the case of RRIRVRPPRLPRPRPRPAKCPRP, the “shrunken log2 fold change” value was 0.0602.
For RRIRIRPPRLPRPRPRPPNQPRP, the “shrunken log2 fold change” value was -0.0959.
For RRIRTRPPRLPRPRPRPFKLPRP, the “shrunken log2 fold change” value was -0.0476.
RRIRVRPPRLPRPRPRPCQSPRP was tested, and the “shrunken log2 fold change” value was 0.0215.
In the case of RRIRMRPPRLPRPRPRPGIQPRP, the “shrunken log2 fold change” value was -0.105.
RRIRPRPPRLPRPRPRPAEHPRP was tested, and the “shrunken log2 fold change” value was 0.214.
For RRIRARPPRLPRPRPRPESQPRP, the “shrunken log2 fold change” value was 0.454.
With RRIRKRPPRLPRPRPRPPMAPRP the “shrunken log2 fold change” value was 0.41.
RRIRRRPPRLPRPRPRPVGIPRP was tested, and the “shrunken log2 fold change” value was 0.12.
For RRIRFRPPRLPRPRPRPLNIPRP, the “shrunken log2 fold change” value was -0.594.
In the case of RRIRMRPPRLPRPRPRPYYCPRP, the “shrunken log2 fold change” value was -0.603.
For RRIRMRPPRLPRPRPRPAEIPRP, the “shrunken log2 fold change” value was 0.11.
In the case of RRIRNRPPRLPRPRPRPGPEPRP, the “shrunken log2 fold change” value was 0.684.
RRIRGRPPRLPRPRPRPVIIPRP was tested, and the “shrunken log2 fold change” value was 2.29.
RRIRNRPPRLPRPRPRPTVMPRP was tested, and the “shrunken log2 fold change” value was 0.178.
In the case of RRIRCRPPRLPRPRPRPNERPRP, the “shrunken log2 fold change” value was 0.0333.
In the case of RRIRWRPPRLPRPRPRPKYNPRP, the “shrunken log2 fold change” value was -0.558.
RRIRPRPPRLPRPRPRPCGFPRP was tested, and the “shrunken log2 fold change” value was 0.183.
For RRIRIRPPRLPRPRPRPSQAPRP, the “shrunken log2 fold change” value was -0.244.
With RRIRRRPPRLPRPRPRPSNLPRP the “shrunken log2 fold change” value was 0.112.
With RRIRNRPPRLPRPRPRPWLHPRP the “shrunken log2 fold change” value was -0.0277.
RRIRKRPPRLPRPRPRPPAFPRP was tested, and the “shrunken log2 fold change” value was 0.309.
With RRIRLRPPRLPRPRPRPGQNPRP the “shrunken log2 fold change” value was -0.18.
RRIRDRPPRLPRPRPRPIAYPRP was tested, and the “shrunken log2 fold change” value was -0.114.
With RRIRHRPPRLPRPRPRPGIDPRP the “shrunken log2 fold change” value was -0.0302.
RRIRKRPPRLPRPRPRPMNGPRP was tested, and the “shrunken log2 fold change” value was -0.0531.
RRIRDRPPRLPRPRPRPWLIPRP was tested, and the “shrunken log2 fold change” value was -0.138.
RRIRYRPPRLPRPRPRPLEEPRP was tested, and the “shrunken log2 fold change” value was -0.0801.
For RRIRRRPPRLPRPRPRPDNRPRP, the “shrunken log2 fold change” value was 0.0484.
For RRIRGRPPRLPRPRPRPGQNPRP, the “shrunken log2 fold change” value was 0.0139.
For RRIRWRPPRLPRPRPRPVNMPRP, the “shrunken log2 fold change” value was -0.101.

From the supplement of paper PMC9112550, “Optimization of the antimicrobial peptide Bac7 by deep mutational scanning” (BMC Biology, 2022)
